T1: (FUS-ZF)x2 (Xenopus laevis, UniProt Q7ZXQ2 435-467)
T1 chain: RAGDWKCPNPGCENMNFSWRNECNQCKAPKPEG

T2: (hRBM10-ZF)x2 (Homo sapiens, UniProt P98175 212-243)
T2 chain: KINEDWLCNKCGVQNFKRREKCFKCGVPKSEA

T3: (ABI3-5Sup-ZF)x2 (Arabidopsis thaliana, UniProt F4JCU0 379-406)
T3 chain: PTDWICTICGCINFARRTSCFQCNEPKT

T4: (ZRANB1-B-ZF)x2 (Danio rerio, UniProt A0JMQ9 152-182)
T4 chain: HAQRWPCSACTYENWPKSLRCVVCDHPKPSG

T5: (mRBM10-ZF N4D)x2 (Mus musculus, UniProt Q99KG3-2 135-166+=GSGSG+135-166, V161M;internal_change)
T5 sequence: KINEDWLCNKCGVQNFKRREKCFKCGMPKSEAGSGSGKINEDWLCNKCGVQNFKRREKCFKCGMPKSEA


Key:
[1] = target: T1, (FUS-ZF)x2; assay: BLI; ITC: 50 mM Tris pH 7.5, 150 mM NaCl, 1 mM DTT, 0.1 mM ZnCl2, 25 °C; BLI: 50 mM Tris pH 7.5, 150 mM NaCl, 1 mM DTT, 0.1% BSA, 0.02% Tween, 30 °C; details: protein: recombinant; tags: GST cleaved (HRV-3C); label: 5' biotin
[2] = target: T2, (hRBM10-ZF)x2; assay: as above; details: protein: recombinant; tags: GST cleaved (HRV-3C); label: 5' biotin
[3] = target: T6, (EWS-ZF)x2 (Homo sapiens, UniProt Q01844-5 523-555); assay: as above; details: protein: recombinant; tags: GST cleaved (HRV-3C); label: 5' biotin
[4] = target: T3, (ABI3-5Sup-ZF)x2; assay: as above; details: protein: recombinant; tags: GST cleaved (HRV-3C); label: 5' biotin
[5] = target: T3, (ABI3-5Sup-ZF)x2; assay: ITC; ITC: 50 mM Tris pH 7.5, 150 mM NaCl, 1 mM DTT, 0.1 mM ZnCl2, 25 °C; BLI: 50 mM Tris pH 7.5, 150 mM NaCl, 1 mM DTT, 0.1% BSA, 0.02% Tween, 30 °C; details: protein: recombinant; tags: GST cleaved (HRV-3C)
[6] = target: T1, (FUS-ZF)x2; assay: as above; details: protein: recombinant; tags: GST cleaved (HRV-3C)
[7] = target: T4, (ZRANB1-B-ZF)x2; assay: as above; details: protein: recombinant; tags: GST cleaved (HRV-3C)
[8] = target: T6, (EWS-ZF)x2; assay: as above; details: protein: recombinant; tags: GST cleaved (HRV-3C)
[9] = target: T5, (mRBM10-ZF N4D)x2; assay: BLI; ITC: 50 mM Tris pH 7.5, 150 mM NaCl, 1 mM DTT, 0.1 mM ZnCl2, 25 °C; BLI: 50 mM Tris pH 7.5, 150 mM NaCl, 1 mM DTT, 0.1% BSA, 0.02% Tween, 30 °C; details: protein: recombinant; tags: GST cleaved (HRV-3C); label: 5' biotin

T6 sequence (Q01844 518-550): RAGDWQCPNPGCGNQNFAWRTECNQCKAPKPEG

Binder	binding result [1]	binding result [2]	binding result [3]	binding result [4]	Kd [2]	Kd [4]	other results
AAAAAAAAAAAA (ssRNA) [(AAA)x2 biotin]	no binding	no binding	no binding	no binding	–	–	–
AAAGGAGGAAAA (ssRNA) [(GGA)x2 biotin]	no binding	–	no binding	–	1400 ± 10 nM	2600 ± 1000 nM	–
AAAGGAGGAAAA (ssRNA) [(GGA)x2]	–	–	–	–	–	–	Kd [5]: 1000 ± 100 nM
AAAGGUGGUAAA (ssRNA) [(GGU)x2]	–	–	–	–	–	–	Kd [6]: 200 ± 20 nM; binding result [7]: no binding; Kd [8]: 200 ± 30 nM; Kd [5]: 700 ± 100 nM
AAAAAAAAAAAA (ssRNA) [polyA control 12-mer]	–	–	–	–	–	–	binding result [7]: no binding
AAAGGGGGGAAA (ssRNA) [(GGG)x2 biotin]	–	–	–	–	300 ± 30 nM	3000 ± 500 nM	Kd [1]: 1100 ± 300 nM; Kd [3]: 1100 ± 10 nM; Kd [9]: 400 ± 30 nM
AAAGAUGAUAAA (ssRNA) [(GAU)x2 biotin]	no binding	no binding	no binding	no binding	–	–	–
AAAGGCGGCAAA (ssRNA) [(GGC)x2 biotin]	no binding	–	no binding	–	2600 ± 30 nM	–	–
AAAAGUAGUAAA (ssRNA) [(AGU)x2 biotin]	no binding	no binding	no binding	no binding	–	–	–
AAAGGUGGUAAA (ssRNA) [(GGU)x2 biotin]	–	–	–	–	500 ± 10 nM	1000 ± 10 nM	Kd [1]: 800 ± 70 nM; Kd [3]: 800 ± 60 nM

— article PMC6384913, “Exploring the suitability of RanBP2-type Zinc Fingers for RNA-binding protein design”
